Consider eight molecules from patent publication US20130149306A1, “Antagonists of Sema3E/PlexinD1 interaction as anti-cancer agents” (NETRIS PHARMA, priority 2010, published 2013).

As a reminder, the IC50 is the concentration needed to halve the response being measured. A higher IC50 goes with weaker potency in that assay.

For data set [1], the target named is PlexinD1-IC D1471N/D1624N (UniProt Q9Y4D7).
Data set [2] addresses T1, in vitro translated intracellular domain of PlexinD1 (hPlexinD1 aa 1293 to 1925) (UniProt Q9Y4D7).
T1 sequence: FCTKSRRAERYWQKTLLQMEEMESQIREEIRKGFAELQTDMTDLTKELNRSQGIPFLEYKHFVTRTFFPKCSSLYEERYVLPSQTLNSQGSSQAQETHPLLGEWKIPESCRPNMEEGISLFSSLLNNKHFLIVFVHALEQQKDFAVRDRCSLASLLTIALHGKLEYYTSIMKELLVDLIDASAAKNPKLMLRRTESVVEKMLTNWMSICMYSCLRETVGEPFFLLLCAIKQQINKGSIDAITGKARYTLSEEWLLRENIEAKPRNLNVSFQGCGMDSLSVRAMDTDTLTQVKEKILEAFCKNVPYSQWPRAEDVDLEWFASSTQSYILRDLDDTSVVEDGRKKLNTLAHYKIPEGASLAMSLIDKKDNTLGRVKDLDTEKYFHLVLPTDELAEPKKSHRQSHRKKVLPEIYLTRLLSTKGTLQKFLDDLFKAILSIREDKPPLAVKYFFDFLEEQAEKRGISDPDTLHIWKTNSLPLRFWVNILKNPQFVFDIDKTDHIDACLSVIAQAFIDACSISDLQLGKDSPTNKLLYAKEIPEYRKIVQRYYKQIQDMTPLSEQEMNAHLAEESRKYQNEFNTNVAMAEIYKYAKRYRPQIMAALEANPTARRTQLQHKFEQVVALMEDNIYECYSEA

For data set [3], the system named is 4T1 cells. Briefly: Cell death/viability in cultures of 4T1 cells. In kind it is cell-based, mouse. The method, then: (§1) Cell death/viability was determined by trypan blue dye exclusion, MTT cell viability assay, calcein assay, and anti-active caspase-3 immunoreactivity. In some experiments, cells were seeded in multiple 24-well plates (5×10^4 cells/well) for 24 h then transfected with different vectors using Lipofectamine Plus (Invitrogen): The different analysis occurred after 48 h (HEK-293T cells) or 72 h (4T1 cells) of serum starvation. In some experiments, cells were cultured in the presence of 10 μM caspase inhibitors: caspase-3 inhibitor II (Z-DEVD-FMK, 264155, VWR), caspase-8 inhibitor II (Z-IETD-FMK, 218759, VWR), and caspase-9 inhibitor II ([…], 218776, VWR).
(§2) For trypan blue exclusion experiments, total cells (adherent and floating) were collected by mechanical detachment and medium collection. Cells were pelleted by slow centrifugation and resuspended in serum-free medium. Trypan blue (0.4%) was added in a ratio of 1:1 to the cell suspension, and the percentage of cell death was measured in a hemacytometer by counting, in a blinded fashion and within a given volume, the number of blue (dead) cells and comparing this number to the total number of cells in this same volume.
(§3) For caspase staining, after immunostaining with anti-active caspase-3 antibody, the percentage of labelled cells was estimated by comparing the number of active caspase-3-stained cells with the total number of cells present on a given surface.
For assessing cell viability using calcein, cells were plated in OptiMEM medium in 96-well black plates (Greiner Bio-one, Courtaboeuf, France). After 3-6 days in culture, live cells were stained with 0.5 μg/ml green calcein-acetoxymethyl ester (Molecular Probes, Eugene, Oreg.) for 40 minutes at 37° C., and counted using a flash cytometer (Trophos, Marseille, France).
We next used an in vitro assay to evaluate whether SD1 is directly capable of triggering death of tumor cells. […] Similarly, 4T1-SD1 cells, which proliferate at the same rate as 4T1-mock cells during the first 24-48 h in culture, show increased death 72 h after plating, possibly as a result of SD1 accumulation in the culture medium (FIG. 14). […] Thus, SD1 triggers cancer cell death in a PlexinD1 dependent manner.

Data set [4] deals with HEK 293T cells transfected with hPlexinD1. Briefly: PlexinD1-induced cell death of transfected HEK 293T cells. In kind it is cell-based, human. The settings on record: for Effect of caspase inhibitor on the death effect of PlexinD1: 10 μM, trypan blue exclusion, cleaved Caspase-3 positive cells; for Effect of co-transfected semaphorin vector on PlexinD1-induced cell death: co-transfection with hPlexinD1. The method, then: FIGS. 28-29: HEK 293T cells transfected with an expression control vector or hPlexinD1 were cultured in absence or presence of different caspase inhibitors at 10 μM (caspase-3 (z-DEVD-fmk) and capspase-9 (z-LEHD-fmk), caspase-8 (z-IETD-fmk)). Cell death was measured by trypan blue exclusion-assay (28) or by quantification of the percentage of cleaved Caspase-3 positive cells (29). Activation of caspase-9 and caspase-3 is required for PlexinD1-mediated cell death.
FIG. 30: HEK 293T cells transfected with expression vectors for hPlexinD1, hPlexinD1-RA or a control vector were cultured in the absence or presence of different concentration of Sema3E (10 to 100 ng/ml).
FIG. 31: HEK 293T cells transfected with an expression vector for hPlexinD1 together with expression vector coding for Sema3E, Sema3C or a soluble form of Sema4A.
as §1, §2, §3

For data set [5], the target named is T2, Sema3E (as printed in the displacement assay and as 'exogenous Sema3E' or Sema3E expression vector in the … (Mus musculus (Mouse), UniProt P70275 26-775)).
T2 construct: The methods describe production of mouse AP-Sema3E, which may be the one used in the displacement assay; also called Sema3E ligand; not shown: Alkaline phosphatase (AP) fusion partner, and a His tag if the AP-Sema3E-his construct was used
T2 sequence: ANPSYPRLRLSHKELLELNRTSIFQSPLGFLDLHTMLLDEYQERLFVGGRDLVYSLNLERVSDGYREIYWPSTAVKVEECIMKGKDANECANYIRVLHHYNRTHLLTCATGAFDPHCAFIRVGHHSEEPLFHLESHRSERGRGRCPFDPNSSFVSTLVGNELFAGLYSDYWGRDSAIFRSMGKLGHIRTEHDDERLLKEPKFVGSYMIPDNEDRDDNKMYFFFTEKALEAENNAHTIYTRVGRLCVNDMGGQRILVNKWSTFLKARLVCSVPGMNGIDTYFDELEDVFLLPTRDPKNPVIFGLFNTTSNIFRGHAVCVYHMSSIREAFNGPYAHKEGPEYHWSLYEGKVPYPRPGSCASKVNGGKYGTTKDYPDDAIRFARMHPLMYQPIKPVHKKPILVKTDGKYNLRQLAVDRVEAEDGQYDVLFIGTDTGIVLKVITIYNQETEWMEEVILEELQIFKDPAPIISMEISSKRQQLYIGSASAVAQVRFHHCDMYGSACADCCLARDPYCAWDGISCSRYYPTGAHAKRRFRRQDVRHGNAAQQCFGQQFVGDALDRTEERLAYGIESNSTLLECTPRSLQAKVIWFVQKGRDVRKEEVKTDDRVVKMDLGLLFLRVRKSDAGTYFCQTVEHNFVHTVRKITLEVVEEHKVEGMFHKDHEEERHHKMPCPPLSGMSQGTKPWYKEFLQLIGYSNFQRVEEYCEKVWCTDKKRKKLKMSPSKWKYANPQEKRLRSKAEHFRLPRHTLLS
Briefly: displacement of Sema3E binding to PlexinD1-expressing HEK293T cells by SD1 in conditioned medium (1-12 nM).

As for purified active caspase-3, the “in vitro cleavage by active caspase-3 (autoradiography)” value in data set [1] is “Mutation of both aspartic acid residues to asparagine (N) within the intracellular domain of PlexinD1 completely suppressed caspase-3 cleavage”; in data set [2], “the intracellular domain of PlexinD1 is cleaved by caspase-3, resulting in five protein products that migrate at apparent molecular weight of 16, 24, 30, 37 and 50 kDa”.
As for “shRNA1: small hairpin RNA targeting mouse Sema3E, SEQ ID NO: 26 (CCGGGCTGCTGAAAGTAATCACAATCTCGAGATTGTGATTACTTTCAGCAGCTTTTTG) [reference compound]”, in data set [3] (transfection with shRNA to mouse Sema3E), the “Death of 4T1 cells on knockdown of Sema3E” value was “induced death”.
With z-LEHD-fmk [reference compound], the “Effect of caspase inhibitor on the death effect of PlexinD1” value (“Effect of caspase inhibitor” below) in data set [4] is reported as “blocked”.
For the molecule z-IETD-fmk [reference compound], the “Effect of caspase inhibitor” value in data set [4] is “not”.
As to z-DEVD-fmk [reference compound], the “Effect of caspase inhibitor” value in data set [4] is “blocked”.

B1: SD1 (sema domain of mouse PlexinD1, aa 61 to 531, fused in frame with six myc epitope tags) (receptor, UniProt Q3UH93 61-531, looked up, not shown: small tags and cut ends)
chain: TNNFALDGTAGTVYLAAVNRLYQLSSANLSLEAEATVGPVPDSPLCHAPQLPQASCEHPRRLTDNYNKILQLDPGQGLVVACGSIYQGLCQLRRRGNISALAVSFPPAAPTAEPVTVFPSMLNVAANHPNASTVGLVLPPTSGTGGSRLLVGATYTGFGSAFFPRNRSLEDHRFENTPEIAIRSLDARGDLAKLFTFDLNPSDDNILKIKQGAKEQHKLGFVRAFLHPAVPPHSAQPYAYLALNSEARAGDKDSQARSLLARICLPRGAGGDAKKLTESYIQLGLQCAGGAGRGDLYSRLVSVFPAREQFFAVFERPQGAPGARNAPAALCAFRFDDVQAAIRAARTACFVEPAPDVVAVLDSVVQGTGPACESKRNIQLQPEQLDCGAAHLQHPLTILQPLRASPVFRAPGLTAVAVASANNYTAVFLGTATGRLLKISLNESMQVVSRRVLTVAYGEPVHHVMQFDPMD
notes: range 61-531; The construct starts with the Ig k-chain secretion signal peptide, left out here as it is a secretion signal; also called SD1 polypeptide; myc-tagged SD1
B1 registered an IC50 in data set [5] of 5.05 nM.

B2: Sema3E: secreted Semaphorin 3E, ligand of PlexinD1; added as exogenous protein or co-transfected vector (protein)
chain: T2 sequence
Take B2: the “Effect of exogenous Sema3E on SD1-induced death” value in data set [3] (exogenous Sema3E 100 ng/ml) is reported as “sufficient to rescue cells from death”. The “Effect of exogenous Sema3E on death induced by Sema3E knockdown” value in data set [3] (exogenous Sema3E 100 ng/ml, shRNA1) was “reversed”. For the same molecule, in data set [4] (Sema3E 10 to 100 ng/ml), the “Effect of exogenous ligand on PlexinD1-triggered cell death” value is “inhibited in a dose dependent manner”. In addition, the “Effect of co-transfected semaphorin vector on PlexinD1-induced cell death” value in data set [4] is “saved from cell death”.

B3: Sema3C: class 3 semaphorin which does not directly bind to PlexinD1; expressed from vector (protein, UniProt Q99985 21-751, looked up)
Semaphorin-3C: GSSQPQARVYLTFDELRETKTSEYFSLSHHPLDYRILLMDEDQDRIYVGSKDHILSLNINNISQEALSVFWPASTIKVEECKMAGKDPTHGCGNFVRVIQTFNRTHLYVCGSGAFSPVCTYLNRGRRSEDQVFMIDSKCESGKGRCSFNPNVNTVSVMINEELFSGMYIDFMGTDAAIFRSLTKRNAVRTDQHNSKWLSEPMFVDAHVIPDGTDPNDAKVYFFFKEKLTDNNRSTKQIHSMIARICPNDTGGLRSLVNKWTTFLKARLVCSVTDEDGPETHFDELEDVFLLETDNPRTTLVYGIFTTSSSVFKGSAVCVYHLSDIQTVFNGPFAHKEGPNHQLISYQGRIPYPRPGTCPGGAFTPNMRTTKEFPDDVVTFIRNHPLMYNSIYPIHKRPLIVRIGTDYKYTKIAVDRVNAADGRYHVLFLGTDRGTVQKVVVLPTNNSVSGELILEELEVFKNHAPITTMKISSKKQQLYVSSNEGVSQVSLHRCHIYGTACADCCLARDPYCAWDGHSCSRFYPTGKRRSRRQDVRHGNPLTQCRGFNLKAYRNAAEIVQYGVKNNTTFLECAPKSPQASIKWLLQKDKDRRKEVKLNERIIATSQGLLIRSVQGSDQGLYHCIATENSFKQTIAKINFKVLDSEMVAVVTDKWSPWTWASSVRALPFHPKDIMGAFSHSEMQMINQYCKDTRQQHQQGDESQKMRGDYGKLKALINSRKSRNRRNQLPES
Consider B3, for which the “Effect of co-transfected semaphorin vector on PlexinD1-induced cell death” value in data set [4] is listed as “no change”.
